Data taken from US20140274782A1, “AFFINITY REAGENTS AND METHODS FOR DETECTION, PURIFICATION, AND PROTEOMIC ANALYSIS OF METHYLATED PROTEINS” (The Board of Trustees of the Leland Stanford Junior …, priority 2013, published 2014).

Columns and labels:
[1] = system: 3×MBT domain of L3MBTL1; test: SILAC proteomic pull-down 3×MBT vs 3×MBTD355N from 293T nuclear extract, LC-MS/MS; format: binding, human; conditions: SILAC ratio, 293T nuclear extract pull-down; * = protein identified in only one labeling experiment
Description: Protein pull-downs were performed as described above using 600 μg of nuclear extract prepared with isotopic labels as indicated. After eluting with glutathione, 3×MBT domain was removed by dialysis into high salt and rebinding to GSH-sepharose. Bound proteins were separated by SDS-PAGE and analyzed by in-gel tryptic digest followed by LC-MS/MS. Peptides were identified using MaxQuant version 1.2.2.5 (Cox and Mann (2008) Nat. Biotechnol. 26, 1367-1372) and candidate methylated peptides were verified by manual inspection.
For stable isotope labeling by amino acids in cell culture (SILAC) experiments HEK 293T cells were grown for at least six doublings in DMEM for SILAC supplemented with 10% dialyzed fetal bovine serum (FBS), 230 mg/L L-proline and either 100 mg/L each of L-lysine and L-arginine (“light” medium), D4-L-lysine and ^13C6-L-arginine (“medium” media), or ^13C6^15N2-L-lysine and ^13C6^15N4-L-arginine (Thermo Scientific). Heavy methyl labeling used DMEM without L-Methionine or L-Cysteine supplemented with D3^13C-L-Methionine (Sigma), L-Cysteine (Sigma) and 10% dialyzed FBS.
600 μg of nuclear extract was incubated overnight rotating at 4° C. with 20 μl packed 3×MBT or 3×MBTD355N beads in a total volume of 250 μL with binding buffer. Supernatant was removed and saved for use as a loading control. Beads were washed 4×5 minutes with 0.5 mL binding buffer. Protein was eluted by incubating in 20 μL elution buffer (10 mg/mL glutathione in 50 mM Tris pH 8.0) rotating at 4° C. for four hours. Elutions from 3×MBT and 3×MBTD355N were combined and dialyzed overnight at 4° C. against 10,000× volume of dissociation buffer (50 mM Tris pH 7.5, 750 mM NaCl) in a 0.1 mL Slide-A-Lyzer MINI Dialysis Device with 3.5K molecular weight cutoff (Thermo Scientific). 80 μL of GSH-Sepharose was prepared by washing briefly three times with 0.5 mL binding buffer. Dialyzed proteins were added to the GSH-Sepharose and incubated 4 hours rotating at 4° C. to deplete the GST-fusion domains. Supernatant was transferred to a fresh 1.5 mL tube. Proteins were separated by SDS-PAGE on a 10% polyacrylamide gel and stained using SilverQuest Silver Staining Kit (Life Technologies). Lanes were excised, residual 3×MBT band was removed, and gel was diced into 0.5 mm cubes. Gel pieces were destained and processed by in-gel digestion (Carlson et al. (2011) Science Signaling 4) with sequencing grade trypsin (Promega) and the peptide sample was dried completely in a vacuum centrifuge. To prepare a loading control, 2 μL each of light and heavy nuclear extract were combined, 6 μL of 8M urea was added, proteins were denatured by adding 2 μL of 100 mM dithiothreitol in digest buffer (50 mM ammonium bicarbonate) and heating to 60° C. for 1 hour, cysteine was alkylated by adding 2.2 μL 100 mg/mL iodoacetamide in digest buffer and incubating 1 hour at room temperature in darkness, and proteins were digested by adding 80 μL trypsin (Promega) at 12.5 ng/μL in digest buffer and incubating overnight at room temperature in darkness. Digestion was stopped by adding 10 μL of 10% formic acid.
Each experiment consisted of two sets of pull-downs: “forward” labeling with 3×MBT incubated with light nuclear extract and 3×MBTD355N with medium extract, and a second “reverse” labeling experiment with the label conditions swapped. Proteins were included in the results if they were quantified in both labeling directions. To determine reproducibility the entire experiment including the label swap was duplicated using independent protein preparations and a mass spectrometer at another institution.
For 3×MBT pull-down experiment #1 the gel lane was processed and peptides were loaded off-line onto a first dimension trap column (Waters Xbridge, C18, 10 μm particle size, 100 Å pore size, 5 cm packing length, 150 μm column i.d.). […]

[2] = biological target: T1, G9a (Homo sapiens, UniProt Q96KQ7); test: In vitro methylation reaction with 3H-SAM, autoradiograph; format: biochemical; conditions: recombinant SIRT1, recombinant G9a SET domain
T1 construct: in vitro methylation assays on SIRT1 and SIRT1K622R using recombinant G9a SET domain
T1 sequence (Q96KQ7 1038-1155 limits assumed, species assumed): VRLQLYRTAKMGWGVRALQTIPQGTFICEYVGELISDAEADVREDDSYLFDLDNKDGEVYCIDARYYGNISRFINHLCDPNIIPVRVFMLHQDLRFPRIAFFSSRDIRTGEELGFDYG
Description: Recombinant GST-SIRT1 was expressed by baculoviral transduction of the Sf9 insect cell line as previously described (Levy et al. (2011) Nat. Immunol. 12, 29-36). A panel of enzymes was tested for ability to methylate recombinant SIRT1 using ^3H-SAM in in vitro methylation reactions (Kuo et al. (2011) Mol. Cell 44, 609-620). SIRT1K622R was generated by site-directed mutagenesis (Stratagene). For the pull-down experiment, 293T cells were transfected with a 10:1 enzyme:substrate DNA ratio. 150 μg of nuclear proteins were used for pull-downs with 3×MBT or 3×MBTD355N coupled GSH-Sepharose as described above.

B1: TUBB4: protein with methylated lysine identified in 3xMBT pull-down (protein, UniProt P04350 1-444, looked up)
Tubulin beta-4A chain: MREIVHLQAGQCGNQIGAKFWEVISDEHGIDPTGTYHGDSDLQLERINVYYNEATGGNYVPRAVLVDLEPGTMDSVRSGPFGQIFRPDNFVFGQSGAGNNWAKGHYTEGAELVDAVLDVVRKEAESCDCLQGFQLTHSLGGGTGSGMGTLLISKIREEFPDRIMNTFSVVPSPKVSDTVVEPYNATLSVHQLVENTDETYCIDNEALYDICFRTLKLTTPTYGDLNHLVSATMSGVTTCLRFPGQLNADLRKLAVNMVPFPRLHFFMPGFAPLTSRGSQQYRALTVPELTQQMFDAKNMMAACDPRHGRYLTVAAVFRGRMSMKEVDEQMLSVQSKNSSYFVEWIPNNVKTAVCDIPPRGLKMAATFIGNSTAIQELFKRISEQFTAMFRRKAFLHWYTGEGMDEMEFTEAESNMNDLVSEYQQYQDATAEEGEFEEEAEEEVA
- Protein Ratio 3xMBT/D355N [1]: 1.9

B2: hnRNP D: protein with methylated lysine identified in 3xMBT pull-down (protein, UniProt Q14103 2-355, looked up)
Heterogeneous nuclear …: SEEQFGGDGAAAAATAAVGGSAGEQEGAMVAATQGAAAAAGSGAGTGGGTASGGTEGGSAESEGAKIDASKNEEDEGHSNSSPRHSEAATAQREEWKMFIGGLSWDTTKKDLKDYFSKFGEVVDCTLKLDPITGRSRGFGFVLFKESESVDKVMDQKEHKLNGKVIDPKRAKAMKTKEPVKKIFVGGLSPDTPEEKIREYFGGFGEVESIELPMDNKTNKRRGFCFITFKEEEPVKKIMEKKYHNVGLSKCEIKVAMSKEQYQQQQQWGSRGGFAGRARGRGGGPSQNWNQGYSNYWNQGYGNYGYNSQGYGGYGGYDYTGYNNYYGYGDYSNQQSGYGKVSRRGGHQNSYKPY
- Protein Ratio 3xMBT/D355N [1]: 22.5

B3: SIRT1: NAD-dependent lysine deactylase SIRT1 (protein, UniProt Q96EB6 2-747, looked up)
NAD-dependent protein …: ADEAALALQPGGSPSAAGADREAASSPAGEPLRKRPRRDGPGLERSPGEPGGAAPEREVPAAARGCPGAAAAALWREAEAEAAAAGGEQEAQATAAAGEGDNGPGLQGPSREPPLADNLYDEDDDDEGEEEEEAAAAAIGYRDNLLFGDEIITNGFHSCESDEEDRASHASSSDWTPRPRIGPYTFVQQHLMIGTDPRTILKDLLPETIPPPELDDMTLWQIVINILSEPPKRKKRKDINTIEDAVKLLQECKKIIVLTGAGVSVSCGIPDFRSRDGIYARLAVDFPDLPDPQAMFDIEYFRKDPRPFFKFAKEIYPGQFQPSLCHKFIALSDKEGKLLRNYTQNIDTLEQVAGIQRIIQCHGSFATASCLICKYKVDCEAVRGDIFNQVVPRCPRCPADEPLAIMKPEIVFFGENLPEQFHRAMKYDKDEVDLLIVIGSSLKVRPVALIPSSIPHEVPQILINREPLPHLHFDVELLGDCDVIINELCHRLGGEYAKLCCNPVKLSEITEKPPRTQKELAYLSELPPTPLHVSEDSSSPERTSPPDSSVIVTLLDQAAKSNDDLDVSESKGCMEEKPQEVQTSRNVESIAEQMENPDLKNVGSSTGEKNERTSVAGTVRKCWPNRVAKEQISRRLDGNQYLFLPPNRYIFHGAEVYSDSEDDVLSSSSCGSNSDSGTCQSPSLEEPMEDESEIEEFYNGLEDEPDVPERAGGAGFGTDGDDQEAINEAISVKQEVTDMNYPSNKS
modifications: GST or 3xFlag tag
- in vitro methylation by G9a [2]: methylates the NAD-dependent lysine deactylase SIRT1 at lysine 622

B4: eEF1A2: protein with methylated lysine identified in 3xMBT pull-down (protein, UniProt Q05639 2-463, looked up)
Elongation factor 1-alpha 2: GKEKTHINIVVIGHVDSGKSTTTGHLIYKCGGIDKRTIEKFEKEAAEMGKGSFKYAWVLDKLKAERERGITIDISLWKFETTKYYITIIDAPGHRDFIKNMITGTSQADCAVLIVAAGVGEFEAGISKNGQTREHALLAYTLGVKQLIVGVNKMDSTEPAYSEKRYDEIVKEVSAYIKKIGYNPATVPFVPISGWHGDNMLEPSPNMPWFKGWKVERKEGNASGVSLLEALDTILPPTRPTDKPLRLPLQDVYKIGGIGTVPVGRVETGILRPGMVVTFAPVNITTEVKSVEMHHEALSEALPGDNVGFNVKNVSVKDIRRGNVCGDSKSDPPQEAAQFTSQVIILNHPGQISAGYSPVIDCHTAHIACKFAELKEKIDRRSGKKLEDNPKSLKSGDAAIVEMVPGKPMCVESFSQYPPLGRFAVRDMRQTVAVGVIKNVEKKSGGAGKVTKSAQKAQKAGK
- Protein Ratio 3xMBT/D355N [1]: 1.5

B5: FAM50A: protein with methylated lysine identified in 3xMBT pull-down (protein, UniProt Q14320 2-339, looked up)
Protein FAM50A: AQYKGAASEAGRAMHLMKKREKQREQMEQMKQRIAEENIMKSNIDKKFSAHYDAVEAELKSSTVGLVTLNDMKAKQEALVKEREKQLAKKEQSKELQMKLEKLREKERKKEAKRKISSLSFTLEEEEEGGEEEEEAAMYEEEMEREEITTKKRKLGKNPDVDTSFLPDRDREEEENRLREELRQEWEAKQEKIKSEEIEITFSYWDGSGHRRTVKMRKGNTMQQFLQKALEILRKDFSELRSAGVEQLMYIKEDLIIPHHHSFYDFIVTKARGKSGPLFNFDVHDDVRLLSDATVEKDESHAGKVVLRSWYEKNKHIFPASRWEPYDPEKKWDKYTIR
modifications: methylated lysine
notes: protein with methylated lysine identified in 3xMBT pull-down
- Protein Ratio 3xMBT/D355N [1]: 3.7*
